The values below come from article PMC5598764.

The target of the experiment is Porcine skeletal actin, pyrene-labeled (porcine) (UniProt P68137). Kind of experiment: stopped-flow fluorescence.

As usually defined, the kon is the rate constant with which the complex forms. The low end stands for slower complex formation, the high end for faster complex formation. “Cardiac myosin from porcine left ventricular tissue (from UniProt P79293 1-1935) (complex)” gave a kon of 0.35 M⁻¹ s⁻¹.
